# From the DeepSol protein solubility set
# Test: soluble on expression in E. coli; label from the status in PepcDB or PDB records
row,Sequence,soluble on expression in E. coli
1,MRPGLSAKRLVVKVGSAVLTGERGLDLEAMAEIARQVAALREEGREVVLVSSGAVAAGMRRLGLKERPKDMPKKQALAALGQPLLMAFWQEAFAPFGLPVAQVLLTAEDLSSRSRYLNAKATLRALLDLGAIPVINENDTVAFEEIRFGDNDQLSARVAALVEAGLLALLSDVDALYEEDPKKNPQARPIPEVESVEAVLAHAGEENPLGSGGMKSKLLAARIAGRVGIPTLLLPGKRPGVLLQALSGAPLGTYFHARRRYRGEKAWLFGLLRPKGELVLDRGAVRALKERGASLLPAGVKEVRGRFSRGEAVRLLSEEGEEVGVGLANYASEEIARIKGRRSAEIEAVLGYRYTEEVVHRDHLALKEEA,soluble
2,MRPKVGVLLKMKREALEELKKYADVEIILYPSGEELKGVIGRFDGIIVSPTTKITREVLENAERLKVISCHSAGYDNIDLEEATKRGIYVTKVSGLLSEAVAEFTVGLIINLMRKIHYADKFIRRGEWESHAKIWTGFKRIESLYGKKVGILGMGAIGKAIARRLIPFGVKLYYWSRHRKVNVEKELKARYMDIDELLEKSDIVILALPLTRDTYHIINEERVKKLEGKYLVNIGRGALVDEKAVTEAIKQGKLKGYATDVFEKEPVREHELFKYEWETVLTPHYAGLALEAQEDVGFRAVENLLKVLRGEVPEDLVNKEVLEVRPIENVKML,soluble
3,MRQAASIACIGGANVDRKARLLTPFRLGTSHPVTTTQTAGGVARNIAENLGRLAQPVSLVSTVGDDRDGQWLVDVTSRYVNTSFIVRTPKANTGTYTAVLDERGEMVLALADMAIYHPEPRRPPLPRVSVSGG,not soluble
4,MRQLLLISDLDNTWVGDQQALEHLQEYLGDRRGNFYLAYATGRSYHSARELQKQVGLMEPDYWLTAVGSEIYHPEGLDQHWADYLSEHWQRDILQAIADGFEALKPQSPLEQNPWKISYHLDPQACPTVIDQLTEMLKETGIPVQVIFSSGKDVDLLPQRSNKGNATQYLQQHLAMEPSQTLVCGDSGNDIGLFETSARGVIVRNAQPELLHWYDQWGDSRHYRAQSSHAGAILEAIAHFDFLS,soluble
5,MRRAFLVNSDKCIGCRGCAMACKSFNQLEPDRFWRYVYPLDKDIYPHEERAFYSLACNHCEHPACVAACPVEAYTKREDGVVVHNPERCIGCKNCIRNCPYGAPRFNEETRKAEKCSMCYERLDIGMNPACVNACPVGALSIIDLDADPVPDNAVQYPPGFPHMPQLNPGTRFILARQPKQPEDK,not soluble
6,MRREKTMDTLIRSIMIKSKRKMDAKVAQFGLTTQQARVLGFLNDNAANEIIQKDLQRIFQTRGASITSLIQGLEKKQLISRKPSLRDGREKVVTLTKEGKDIVDEFNASFPREDDKAKKILSADEYKTFIELLSKIDDQTDLEHHHHHH,soluble
7,MRRLLLASSLLTLLAGCANHVIDPHGYDETGTAAYYGTRHHGNRTASGEPFNQNALTAAHRQLPFGTRVKVTNLNNDKSVIVRVNDRGPHTRGRLIDVSREAAEQLGMLRSGTAPVRVQALD,not soluble
8,MRRNGSVPDLNKNDAFRRPPAPKGGVEKRKKGRASGLDGRQKRYVRGAESLGSVLNKEIQRRGWGKDIAGGWVTSNWEELVGAKIAQHTRVEMIKDKKLFITCDSTAWATNLRMMQRQILQVIAEKVGPNIITELRIFGPQAPSWRKGPLHVKGRGPRDTYG,not soluble
9,MRRTLHNELQELRGNIRVYCRIRPALKNLENSDTSLINVNEFDDNSGVQSMEVTKIQNTAQVHEFKFDKIFDQQDTNVDVFKEVGQLVQSSLDGYNVCIFAYGQTGSGKTFTMLNPGDGIIPSTISHIFNWINKLKTKGWDYKVNCEFIEIYNENIVDLLRSDNNNKEDTSIGLKHEIRHDQETKTTTITNVTSCKLESEEMVEIILKKANKLRSTASTASNEHSSRSHSIFIIHLSGSNAKTGAHSYGTLNLVDLAGSERINVSQVVGDRLRETQNINKSLSCLGDVIHALGQPDSTKRHIPFRNSKLTYLLQYSLTGDSKTLMFVNISPSSSHINETLNSLRFASKVNSTRLVSRK,soluble
10,MRRVLFSCFCGLLWSSSGWAVDPLGTININLHGNVVDFSCTVNTADIDKTVDLGRWPTTQLLNAGDTTALVPFSLRLEGCPPGSVAILFTGTPASDTNLLALDDPAMAQTVAIELRNSDRSRLALGEASPTEEVDANGNVTLNFFANYRALASGVRPGVAKADAIFMINYN,not soluble
11,MRSKRFEALAKRPVNQDGFVKEWIEEGFIAMESPNDPKPSIKIVNGAVTELDGKPVSDFDLIDHFIARYGINLNRAEEVMAMDSVKLANMLCDPNVKRSEIVPLTTAMTPAKIVEVVSHMNVVEMMMAMQKMRARRTPSQQAHVTNVKDNPVQIAADAAEGAWRGFDEQETTVAVARYAPFNAIALLVGSQVGRPGVLTQCSLEEATELKLGMLGHTCYAETISVYGTEPVFTDGDDTPWSKGFLASSYASRGLKMRFTSGSGSEVQMGYAEGKSMLYLEARCIYITKAAGVQGLQNGSVSCIGVPSAVPSGIRAVLAENLICSSLDLECASSNDQTFTHSDMRRTARLLMQFLPGTDFISSGYSAVPNYDNMFAGSNEDAEDFDDYNVIQRDLKVDGGLRPVREEDVIAIRNKAARALQAVFAGMGLPPITDEEVEAATYAHGSKDMPERNIVEDIKFAQEIINKNRNGLEVVKALAQGGFTDVAQDMLNIQKAKLTGDYLHTSAIIVGDGQVLSAVNDVNDYAGPATGYRLQGERWEEIKNIPGALDPNEID,soluble
12,MRSMNTHAVLQFLSGNGIAILQFFHQLILQGKTQDDLTRDYALDRAWVGSVMKLAKELFDPRPSPSRDECISVAKELGLGIEVLKAINPALGRLNKKASMTKDDLRLRLYREARGMTPAEAKAHANTRVVALNDACGATPRKPAVRISKSTDAAGQRHIHASLDDATASAVAEKLHAGARWLTKKTPSLSYSQAMAEIFAIAILDSPALGGRKRREGLILLPADGYTHRGNGMLATTDGSLIPAHKLAEHLLEEYGYAMLYALNDEGVPEPVDLYRTKRYANDKQRLMITADQLTCSHPDCHRLANNSHIHHCTAWERGGETNVKNLVAACATHNRRNDDDPERHKNGYFRRMPHSGCAGFQPADPSLPPRRTRVPFAAYSARVWACDHFGVTV,not soluble
13,MRSMTLEQLRTASETGGVSSVTLKGQGGAFLVQINTRSGVAAILTKARNSEPRRFGNPAAALNVLREVGITIGQFDASEWNPDEREPVARSSDNRAKALHKAHEAAAYNEWLAAEIQEAIDDPRPGIPHDEVMARMDARIVRHKAAGAKRA,not soluble
14,MRSPYLIGVFLAAGKSRRMGQNKLALPLKGENIGSLSLKTALSSRLDHVLVVERTEHASLEWIGAPYHAPPFQKRWSLHVCQDAEKGQGHSVSSGVRKAESMGADGIVILLADQPQLSVDHLNALVALAPESFAVSSFLGAFTPPIYFSSTCFPYVKGLKGDEGARRLLKSGQLGAGAVLEAKDSGELDDIDTPRGILEHHHHHH,not soluble
15,MRSRVLWGAARWLWPRRAVGPARRPLSSGSPPLEELFARGGPLRTFLERQAGSEAHLKVRRPELLAVIKLLNEKEQELRETEHLLHDENEDLRKLAENEITLCQKEITQLKHQIILLLVPSEETDENDLILEVTAGVGGQEAMLFTSEIFDMYQQYAAFKRWHFETLEYFPSELGGLRHASASIGGSEAYRHMKFEGGVHRVQRVPKTEKQGRVHTSTMTVAILPQPTEINLVINPKDLRIDTKRASGAGGQHVNTTDSAVRIVHLPTGVVSECQQERSQLKNKELAMTKLRAKLYSMHLEEEINKRQNARKIQIGSKGRSEKIRTYNFPQNRVTDHRINKTLHDLETFMQGDYLLDELVQSLKEYADYESLVEIISQKV,soluble
16,MRSYDFSPLYRATVGFDRIADLMDRVMTSEVAQPTYPPYNIEKTAENAYRISIAVAGFTPDELAVEVKENTLHVGARKAADEAERTYLHRGIATRAFERRFALADHVRVSGATHEHGMLHIDLVRETPEALKPRRIEIARGDLGGTRSIEAVKEPVEA,not soluble
17,MRTAVIIPFYQREAGILSRALDSVDGQILPEGHSLTVFVIDDESPVSARSEVEGRQGKVPVRLIAQKNGGPGAARNAGLDAVAAEGFDHVAFLDSDDIWQPTHLADALDLLARGYDFHFCDHQRTDDDITYFERTPALRRMREERHAGVTVLDAEAPILAFDQPSIMAASVDTYLSQTSTVVVRQSFVETLRFDPRLRNAGEDQLFWLSLIAAGARTVVSWKMNVLCGRGVNVYFDAFDWKSTKVVDRTGYMLMFFHTVGRRLSLTASDRRTVADRIRRYRRAYSYLFLRALLQGRVPTLSLTWKLAALDPGLVPAMPLRFLAVLPNREAESLQWLEHHHHHH,not soluble
18,MRTHTGKIPDHFVPRISMTEEQRRVVFMLNSLLLDYPEEGFVDKLNAVEAQLDVLPLPVAAHVVEFLDAARVAGLRAMQEAYVETFDQRRRCSLFLTYYAVGDTRQRGTAILTFRQTLQQLGFESERDELPDHLCVVLEAAALADSSLFDAATQVLSAHRDGIEVLRAALDNLDSPYRYLIMSLCQALPEIDEETANSYMELIRSGPPAEMVGIGTPLPFPTSQPDIH,not soluble
19,MRVKTIMTQNPVTITLPATRNYALELFKKYKVRSFPVVNKEGKLVGIISVKRILVNPDEEQLAMLVKRDVPVVKENDTLKKAAKLMLEYDYRRVVVVDSKGKPVGILTVGDIIRRYFAKSEKYKGVEIEPYYQRYVSIVWEGTPLKAALKALLLSNSMALPVVDSEGNLVGIVDETDLLRDSEIVRIMKSTELAASSEEEWILESHPTLLFEKFELQLPNKPVAEIMTRDVIVATPHMTVHEVALKMAKYSIEQLPVIRGEGDLIGLIRDFDLLKVLVKSKA,soluble
20,MRVLVTGGAGFIGSHIVEDLLARGLEVAVLDNLATGKRENVPKGVPFFRVDLRDKEGVERAFREFRPTHVSHQAAQASVKVSVEDPVLDFEVNLLGGLNLLEACRQYGVEKLVFASTGGAIYGEVPEGERAEETWPPRPKSPYAASKAAFEHYLSVYGQSYGLKWVSLRYGNVYGPRQDPHGEAGVVAIFAERVLKGLPVTLYARKTPGDEGCVRDYVYVGDVAEAHALALFSLEGIYNVGTGEGHTTREVLMAVAEAAGKAPEVQPAPPRPGDLERSVLSPLKLMAHGWRPKVGFQEGIRLTVDHFRGAV,soluble
21,MRVRGIYATALVALALKKGYLLSDLSKTMLSRVEVPVSTRPPNITVKHGEESRDEIVIHAFPYEAGERFEADLLEEVGHAAVRRSLLGLRSVVDARAAEGCRAEGPGGVLIIVKGGECPQPGSMVRVTVVRSPPGSDVVEGRVGVELTGLTVRVMHPGSGVRISRHLTSEDAAKALKAVEASGIDLNQFSVHIRSGARLASEGDISDEIRRLAREAERLWREGPGGEPAVLSRGEYLSLVYLPSTAKHVMDGLRTSLYPTVNNHHSLKSWSSEAEGLLTDFAEEGVREGLWGGEAGDLIVRFISSRLVGRTAVVLHRRPDGETIRLGPFRVSSYRPSSGRGGEIVLERTFRSPGVYDGLGLERRPGDRGVTHVYMGDWLTIHEYYDKSGRLLGVYANINTPPEVGFQGLKYLDLLVDVVKRPGEEPETIDQGELEKACRSGLLTDRLCEEAARQAERASGLLQSRYP,not soluble
22,MRYALAACLLLLAASSFVDAKKKKIADDELGELLDNIDADEEKKSVEPAKNPCEDHQCGWGKECVVGKKGEPTCECISKCPELDGDPMDKVCANNNQTFTSLCDLYRERCLCKRKSKECSKAFNAKVHLEYLGECKKLDECTEEHMAQFPERMADWLFQVMKELKKRRELHKLEWEELLSEAENDDEKKHVYPVIWKFCELDTKPHDKSVSHHELIPITAPVIPMESCIKPFLEGCDANNDGNISIKEWGKCLGLKEGEIQERC,not soluble
23,MSAAAAPDTARSGRWRVDTDPERVERDLTCLVLTLVELVRQLVERQCVRRMDQGDLSDEQIETLGLTLMRLEEAMTELCERFDLSPSDLNLDLGPLGTLLPVD,not soluble
